Test results taken from patent publication US20250152746A1, “BASE EDITING OF ANGPTL3 AND METHODS OF USING SAME FOR TREATMENT OF DISEASE” (Verve Therapeutics, Inc., priority 2020, published 2025).
In the oligonucleotide strings, read from the 5' end, every base follows the letter of its sugar. An asterisk marks phosphorothioate; unmarked linkages are phosphodiester. Other units and linkages are bracketed, terminal groups are in braces. A string of capitals states the bases alone. m = 2'-O-methyl; r = 2'-OH (RNA)

What was measured:
PCSK9 gene [1] = experiment: PCSK9 gRNA/SpCas9 editing in primary cynomolgus hepatocytes (Tables 2, 22); type: cell-based, cynomolgus monkey; settings: SpCas9 mRNA MS002 1:1 by weight; for Cyno Primary Hepatocyte Editing % 100: 100 ng/RNA/mL; for Cyno Primary Hepatocyte Editing % 500: 500 ng/RNA/mL; for Cyno Primary Hepatocyte Editing % 2500: 2500 ng/RNA/mL
PCSK9 gene [2] = experiment: PCSK9 gRNA/SpCas9 editing in primary human hepatocytes (Tables 2, 4); type: cell-based; settings: SpCas9 mRNA MS002 1:1 by weight; for Human Primary Hepatocyte Editing % 100: 100 ng/RNA/mL; for Human Primary Hepatocyte Editing % 500: 500 ng/RNA/mL; for Human Primary Hepatocyte Editing % 2500: 2500 ng/RNA/mL
Procedure: In set of experiments, PCSK9 gRNAs were co-transfected with an equivalent amount (1:1 ratio by weight) of in vitro transcribed commercially available SpCas9 mRNA MS002 purchased from TriLink Biotechnologies into primary human hepatocytes at 2500, 500, or 100 ng/RNA/mL and processed as described in detailed methods. Extracted genomic DNA was analyzed for gene editing at the target site with next-generation sequencing of PCR amplicons generated around the target sites. Samples were prepared using the Nextera XT DNA library preparation kit (Illumina) according to the manufacturer's protocol. Briefly, two rounds of PCR were performed first to amplify the region of interest and second to add DNA sequences required for next generation sequencing and sample identification to the initial product. The final amplicon was sequenced on the Illumina MiSeq instrument according to the manufacturer's protocol. A wide range of editing activities (Table 2) were observed. In a second set of experiments, ANGPTL3 gRNAs were co-transfected with an equivalent amount of in vitro transcribed SpCas9 mRNA (1:1 ratio by weight) into primary human hepatocytes and processed and analyzed similarly (Table 3).
PCSK9 gRNAs were co-transfected with an equivalent amount of in vitro transcribed SpCas9 mRNA MS002 (1:1 ratio by weight) into primary human hepatocytes and processed as described in detailed methods. A wide range of editing activities were observed (Table 4; ND=Not determined). The guides with the highest editing activity at five days post transfection were GA001, GA002, GA007, and GA008.
Human primary hepatocytes were transfected at 2500, 1250, 500, and 250 ng/test article/mL with SpCas9 mRNA MS002 and a gRNA targeting PCSK9 with modifications to the tracr. Genomic DNA was processed, sequenced, and analyzed as described in the detailed methods section. GA156 was transfected to serve as a positive control.
Plating, culturing, and transfection of primary hepatocytes. Primary human liver hepatocytes (PHH) and primary cynomolgus liver hepatocytes (PCH) from BioIVT were cultured per the manufacturer's protocol. Briefly, primary human hepatocytes and primary cyno hepatocytes were obtained as frozen aliquots from BioIVT. Four lots of primary human hepatocytes, each derived from a de-identified individual donor, were used for the experiments: STL (main donor) was used for all experiments, including screening experiments and off-target experiments; HLY, JLP, and TLY were used for off-target experiments. The HFG lot of primary cyno hepatocytes were used for experiments. Following the manufacturer's instructions, cells were thawed and rinsed prior to plating in 24-well plates that had been coated with bovine collagen overnight, with a density of approximate 350,000 cells/well in INVITROGRO hepatocyte medium supplemented with TORPEDO antibiotic mix (BioIVT). The cells were thawed and resuspended in hepatocyte thawing medium followed by centrifugation at 100 g for 10 min at 4° C. The supernatant was discarded, and the pelleted cells resuspended in hepatocyte plating medium. Each vial contains approximately 5 million cells that were used for plating one 24-well plate. Plated cells were allowed to settle and adhere for 4-6 h in a tissue culture incubator at 37° C. under 5% CO2 atmosphere. After incubation, cells were checked for monolayer formation. The incubating media were then replaced with fresh hepatocyte maintenance media (complete INVITROGRO medium obtained from BioIVT, the cell line provider). The cells thus became ready for transfection. Each of the gRNAs were co-transfected with an equivalent amount of in vitro transcribed ABE8.8 mRNA (1:1 ratio by molecular weight) into primary human hepatocytes via MessengerMax reagent (Lipofectamine), using various dilutions to assess for editing activity at different concentrations of test article. MessengerMAX from Thermo Fisher is used for transfection. […]

B1: GA199: PCSK9 gRNA; protospacer GAAGCGGGTCCCGTCCTCCT (SEQ ID NO: 193) (nucleic acid)
guide: GAAGCGGGUCCCGUCCUCCUGUUUUAGAGCUAGAAAUAGCAAGUUAAAAUAAGGCUAGUCCGUUAUCAACUUGAAAAAGUGGCACCGAGUCGGUGCUUUU
modifications: sugars from the 5' end m3 r94 m3, linkages s3 o93 s3 (s phosphorothioate, o phosphodiester), T or U not given here
PCSK9 gene [1]
  Cyno Primary Hepatocyte Editing % 100: 3.07%
  Cyno Primary Hepatocyte Editing % 500: 15.11%
  Cyno Primary Hepatocyte Editing % 2500: 45.32%
PCSK9 gene [2]
  Human Primary Hepatocyte Editing % 100: 1.17%
  Human Primary Hepatocyte Editing % 500: 6.89%
  Human Primary Hepatocyte Editing % 2500: 29.95%

B2: GA195: PCSK9 gRNA; protospacer ACCACCGGGAAATCGAGGGC (SEQ ID NO: 189) (nucleic acid)
guide: ACCACCGGGAAAUCGAGGGCGUUUUAGAGCUAGAAAUAGCAAGUUAAAAUAAGGCUAGUCCGUUAUCAACUUGAAAAAGUGGCACCGAGUCGGUGCUUUU
modifications: sugars from the 5' end m3 r94 m3, linkages s3 o93 s3 (s phosphorothioate, o phosphodiester), T or U not given here
PCSK9 gene [1]
  Cyno Primary Hepatocyte Editing % 100: 0.69%
  Cyno Primary Hepatocyte Editing % 500: 4.77%
  Cyno Primary Hepatocyte Editing % 2500: 18.78%
PCSK9 gene [2]
  Human Primary Hepatocyte Editing % 100: 3.58%
  Human Primary Hepatocyte Editing % 500: 13.3%
  Human Primary Hepatocyte Editing % 2500: 12.57%

B3: GA157: PCSK9 gRNA; protospacer GCCGTCCTCCTCGGAACGCA (SEQ ID NO: 151) (nucleic acid)
guide: mG*mC*mC*rGrUrCrCrUrCrCrUrCrGrGrArArCrGrCrArGrUrUrUrUrArGrArGrCrUrArGrArArArUrArGrCrArArGrUrUrArArArArUrArArGrGrCrUrArGrUrCrCrGrUrUrArUrCrArArCrUrUrGrArArArArArGrUrGrGrCrArCrCrGrArGrUrCrGrGrUrGrCrU*mU*mU*mU
PCSK9 gene [1]
  Cyno Primary Hepatocyte Editing % 100: 0.78%
  Cyno Primary Hepatocyte Editing % 500: 2.93%
  Cyno Primary Hepatocyte Editing % 2500: 13.78%
PCSK9 gene [2]
  Human Primary Hepatocyte Editing % 100: 0.62%
  Human Primary Hepatocyte Editing % 500: 2.82%
  Human Primary Hepatocyte Editing % 2500: 10.03%

B4: GA200: PCSK9 gRNA; protospacer CTAGGAGATACACCTCCACC (SEQ ID NO: 194) (nucleic acid)
guide: CUAGGAGAUACACCUCCACCGUUUUAGAGCUAGAAAUAGCAAGUUAAAAUAAGGCUAGUCCGUUAUCAACUUGAAAAAGUGGCACCGAGUCGGUGCUUUU
modifications: sugars from the 5' end m3 r94 m3, linkages s3 o93 s3 (s phosphorothioate, o phosphodiester), T or U not given here
PCSK9 gene [1]
  Cyno Primary Hepatocyte Editing % 100: 5.15%
  Cyno Primary Hepatocyte Editing % 500: 20.51%
  Cyno Primary Hepatocyte Editing % 2500: 54.36%
PCSK9 gene [2]
  Human Primary Hepatocyte Editing % 100: 3.8%
  Human Primary Hepatocyte Editing % 500: 8.68%
  Human Primary Hepatocyte Editing % 2500: 5.31%

B5: GA196: PCSK9 gRNA; protospacer GAGTGACCACCGGGAAATCG (SEQ ID NO: 190) (nucleic acid)
guide: GAGUGACCACCGGGAAAUCGGUUUUAGAGCUAGAAAUAGCAAGUUAAAAUAAGGCUAGUCCGUUAUCAACUUGAAAAAGUGGCACCGAGUCGGUGCUUUU
modifications: sugars from the 5' end m3 r94 m3, linkages s3 o93 s3 (s phosphorothioate, o phosphodiester), T or U not given here
PCSK9 gene [1]
  Cyno Primary Hepatocyte Editing % 100: 1.09%
  Cyno Primary Hepatocyte Editing % 500: 3.4%
  Cyno Primary Hepatocyte Editing % 2500: 27.79%
PCSK9 gene [2]
  Human Primary Hepatocyte Editing % 100: 0.75%
  Human Primary Hepatocyte Editing % 500: 2.9%
  Human Primary Hepatocyte Editing % 2500: 17.19%

B6: GA198: PCSK9 gRNA; protospacer CCACCGGGAAATCGAGGGCA (SEQ ID NO: 192) (nucleic acid)
guide: CCACCGGGAAAUCGAGGGCAGUUUUAGAGCUAGAAAUAGCAAGUUAAAAUAAGGCUAGUCCGUUAUCAACUUGAAAAAGUGGCACCGAGUCGGUGCUUUU
modifications: sugars from the 5' end m3 r94 m3, linkages s3 o93 s3 (s phosphorothioate, o phosphodiester), T or U not given here
PCSK9 gene [1]
  Cyno Primary Hepatocyte Editing % 100: 3.53%
  Cyno Primary Hepatocyte Editing % 500: 16.15%
  Cyno Primary Hepatocyte Editing % 2500: 49%
PCSK9 gene [2]
  Human Primary Hepatocyte Editing % 100: 0.04%
  Human Primary Hepatocyte Editing % 500: 10.58%
  Human Primary Hepatocyte Editing % 2500: 30.93%

B7: GA201: PCSK9 gRNA; protospacer CAGCATACAGAGTGACCACC (SEQ ID NO: 195) (nucleic acid)
guide: CAGCAUACAGAGUGACCACCGUUUUAGAGCUAGAAAUAGCAAGUUAAAAUAAGGCUAGUCCGUUAUCAACUUGAAAAAGUGGCACCGAGUCGGUGCUUUU
modifications: sugars from the 5' end m3 r94 m3, linkages s3 o93 s3 (s phosphorothioate, o phosphodiester), T or U not given here
PCSK9 gene [1]
  Cyno Primary Hepatocyte Editing % 100: 4.33%
  Cyno Primary Hepatocyte Editing % 500: 14.37%
  Cyno Primary Hepatocyte Editing % 2500: 44.01%
PCSK9 gene [2]
  Human Primary Hepatocyte Editing % 100: 3.29%
  Human Primary Hepatocyte Editing % 500: 12.92%
  Human Primary Hepatocyte Editing % 2500: 31.51%

B8: GA192: PCSK9 gRNA; protospacer CCATGTCGACTACATCGAGG (SEQ ID NO: 186) (nucleic acid)
guide: mC*mC*mA*rUrGrUrCrGrArCrUrArCrArUrCrGrArGrGrGrUrUrUrUrArGrArGrCrUrArGrArArArUrArGrCrArArGrUrUrArArArArUrArArGrGrCrUrArGrUrCrCrGrUrUrArUrCrArArCrUrUrGrArArArArArGrUrGrGrCrArCrCrGrArGrUrCrGrGrUrGrCrU*mU*mU*mU
PCSK9 gene [1]
  Cyno Primary Hepatocyte Editing % 100: 0.60%
  Cyno Primary Hepatocyte Editing % 500: 1.50%
  Cyno Primary Hepatocyte Editing % 2500: 10.26%
PCSK9 gene [2]
  Human Primary Hepatocyte Editing % 100: 1.14%
  Human Primary Hepatocyte Editing % 500: 6.02%
  Human Primary Hepatocyte Editing % 2500: 16.7%

B9: GA194: PCSK9 gRNA; protospacer GTCGACATGGGGCAACTTCA (SEQ ID NO: 188) (nucleic acid)
guide: GUCGACAUGGGGCAACUUCAGUUUUAGAGCUAGAAAUAGCAAGUUAAAAUAAGGCUAGUCCGUUAUCAACUUGAAAAAGUGGCACCGAGUCGGUGCUUUU
modifications: sugars from the 5' end m3 r94 m3, linkages s3 o93 s3 (s phosphorothioate, o phosphodiester), T or U not given here
PCSK9 gene [1]
  Cyno Primary Hepatocyte Editing % 100: 2.38%
  Cyno Primary Hepatocyte Editing % 500: 9.49%
  Cyno Primary Hepatocyte Editing % 2500: 30.91%
PCSK9 gene [2]
  Human Primary Hepatocyte Editing % 100: 2.32%
  Human Primary Hepatocyte Editing % 500: 12.39%
  Human Primary Hepatocyte Editing % 2500: 32.97%

B10: GA193: PCSK9 gRNA; protospacer GGGGCTGGTATTCATCCGCC (SEQ ID NO: 187) (nucleic acid)
guide: GGGGCUGGUAUUCAUCCGCCGUUUUAGAGCUAGAAAUAGCAAGUUAAAAUAAGGCUAGUCCGUUAUCAACUUGAAAAAGUGGCACCGAGUCGGUGCUUUU
modifications: sugars from the 5' end m3 r94 m3, linkages s3 o93 s3 (s phosphorothioate, o phosphodiester), T or U not given here
PCSK9 gene [1]
  Cyno Primary Hepatocyte Editing % 100: 8.70%
  Cyno Primary Hepatocyte Editing % 500: 32.02%
  Cyno Primary Hepatocyte Editing % 2500: 52.89%
PCSK9 gene [2]
  Human Primary Hepatocyte Editing % 100: 3.92%
  Human Primary Hepatocyte Editing % 500: 15.68%
  Human Primary Hepatocyte Editing % 2500: 35.77%

B11: GA197: PCSK9 gRNA; protospacer AGTGACCACCGGGAAATCGA (SEQ ID NO: 191) (nucleic acid)
guide: AGUGACCACCGGGAAAUCGAGUUUUAGAGCUAGAAAUAGCAAGUUAAAAUAAGGCUAGUCCGUUAUCAACUUGAAAAAGUGGCACCGAGUCGGUGCUUUU
modifications: sugars from the 5' end m3 r94 m3, linkages s3 o93 s3 (s phosphorothioate, o phosphodiester), T or U not given here
PCSK9 gene [1]
  Cyno Primary Hepatocyte Editing % 100: 0.9%
  Cyno Primary Hepatocyte Editing % 500: 3.89%
  Cyno Primary Hepatocyte Editing % 2500: 18.21%
PCSK9 gene [2]
  Human Primary Hepatocyte Editing % 100: 1.22%
  Human Primary Hepatocyte Editing % 500: 3.29%
  Human Primary Hepatocyte Editing % 2500: 15.03%
